In IntAct's records for PubMed 22045334:

B1: Mothers against decapentaplegic homolog 3 (Homo sapiens), P84022 (parent)
chain: MSSILPFTPPIVKRLLGWKKGEQNGQEEKWCEKAVKSLVKKLKKTGQLDELEKAITTQNVNTKCITIPRSLDGRLQVSHRKGLPHVIYCRLWRWPDLHSHHELRAMELCEFAFNMKKDEVCVNPYHYQRVETPVLPPVLVPRHTEIPAEFPPLDDYSHSIPENTNFPAGIEPQSNIPETPPPGYLSEDGETSDHQMNHSMDAGSPNLSPNPMSPAHNNLDLQPVTYCEPAFWCSISYYELNQRVGETFHASQPSMTVDGFTDPSNSERFCLGLLSNVNRNAAVELTRRHIGRGVRLYYIGGEVFAECLSDSAIFVQSPNCNQRYGWHPATVCKIPPGCNLKIFNNQEFAALLAQSVNQGFEAVYQLTRMCTIRMSFVKGWGAEYRRQTVTSTPCWIELHLNGPLQWLDKVLTQMGSPSIRCSSVS

Variants of: B1
Conditions: with ubc_human UBC

Row | effect of a mutation on the interaction | Variant
1 | decreasing interaction | K409R
2 | decreasing interaction | K333R
3 | decreasing interaction | K378R
4 | decreasing interaction | K341R

Variants of: B1
Conditions: with smad4_human SMAD4, Q13485

Row | effect of a mutation on the interaction | Variant
5 | decreasing interaction | K333R;K378R;K409R
6 | decreasing interaction | K333R;K341R;K378R;K409R

Variants of: B1
Conditions: with smuf2_human SMURF2, Q9HAU4

Row | effect of a mutation on the interaction | Variant
7 | disrupting interaction | T179V
8 | disrupting interaction | T179V;S204A;S208A;S213A
